This assay has as its target T1, GST-RARα (UniProt P10276 1-462).
T1 construct: full-length RARα; also called GST-tagged full-length RARα; source: GST-tagged recombinant protein
T1 sequence (looked up): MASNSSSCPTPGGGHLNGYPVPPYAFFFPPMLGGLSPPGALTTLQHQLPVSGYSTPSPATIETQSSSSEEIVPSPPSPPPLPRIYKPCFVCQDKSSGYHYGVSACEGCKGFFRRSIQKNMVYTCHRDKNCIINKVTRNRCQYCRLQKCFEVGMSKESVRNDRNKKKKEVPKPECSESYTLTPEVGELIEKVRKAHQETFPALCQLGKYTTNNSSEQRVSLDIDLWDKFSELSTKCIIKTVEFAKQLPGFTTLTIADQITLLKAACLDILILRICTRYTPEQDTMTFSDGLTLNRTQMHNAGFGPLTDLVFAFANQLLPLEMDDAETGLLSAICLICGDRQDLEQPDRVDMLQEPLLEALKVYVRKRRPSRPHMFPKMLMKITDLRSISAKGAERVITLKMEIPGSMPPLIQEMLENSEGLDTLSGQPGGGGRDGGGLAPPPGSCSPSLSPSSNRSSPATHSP
The assay can be described thus: far-Western, overlay or dot blot; S100A3 immunoprecipitated from extracts of transfected COS-7 cells with anti-S100A3 beads, resolved and blotted; probed with GST-tagged RARα recombinant proteins; developed with an anti-GST antibody. The following applies: both partners purified.

B1: S100A3 (over-expressed in COS-7) (natural protein, human, UniProt P33764 1-101, looked up)
chain: MARPLEQAVAAIVCTFQEYAGRCGDKYKLCQAELKELLQKELATWTPTEFRECDYNKFMSVLDTNKDCEVDFVEYVRSLACLCLYCHEYFKDCPSEPPCSQ
notes: protein S100-A3; source: COS-7, transiently transfected (pcDNA3 expression plasmid for the S100A3 cDNA), in cell extract; immunoprecipitated with anti-S100A3 for the far-western
B1: the binding result is reported as “binds”.
